Non-standard residues stand in square brackets, D forms with d. No end group written: not given here. *: point of attachment. Stearoyl = CCCCCCCCCCCCCCCCCC(=O)*; Nle = CCCC[C@H](N)C(=O)O
Key:
bovine LPL [1] = target: T1, bovine LPL (Bos taurus, UniProt P11151); assay: in vitro LPL assay using apoC-II deficient patient sera as substrate; type: biochemical; conditions: for promoting TG hydrolysis in the presence of LPL / efficiency compared with native apoC-II protein: FIG. 6; for efficiency compared with native apoC-II protein: at lower concentrations; for TG hydrolysis: concentrations from 100 pM to 10 μM, FIG. 12; for TG clearance ability compared with Delta4: FIG. 10
T1 sequence (P11151 29-478): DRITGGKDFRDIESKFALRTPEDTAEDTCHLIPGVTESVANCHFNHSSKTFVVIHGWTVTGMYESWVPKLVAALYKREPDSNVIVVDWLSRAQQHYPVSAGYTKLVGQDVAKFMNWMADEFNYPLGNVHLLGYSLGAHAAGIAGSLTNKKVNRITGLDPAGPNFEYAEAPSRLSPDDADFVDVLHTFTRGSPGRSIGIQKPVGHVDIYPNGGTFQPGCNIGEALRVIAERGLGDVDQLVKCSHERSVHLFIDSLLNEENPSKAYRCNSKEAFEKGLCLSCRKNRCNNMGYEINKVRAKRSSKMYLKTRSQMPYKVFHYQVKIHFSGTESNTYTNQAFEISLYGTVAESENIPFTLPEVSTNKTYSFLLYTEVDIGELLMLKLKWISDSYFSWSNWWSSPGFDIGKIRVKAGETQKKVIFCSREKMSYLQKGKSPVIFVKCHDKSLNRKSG
Procedure: (§1) Preparation of LPL: frozen stock of 10 μL of 0.5 mg/mL bovine LPL was used and diluted 1:100 (10 μL+990 μL of PBS).
(§2) Preparation of 20% Intralipid: 2000 mg/dL TG Intralipid was used to prepare 3 mg/dL TG Intralipid by diluting 1.5 μL of the stock with 998.5 μL PBS, or by diluting the stock 1:10 first and then mixing 15 μL of the diluted stock with 985 μL PBS. When apoC-II deficient human serum was used as a substrate, a frozen 10 μL aliquot of 1711 mg/dL (TG) was diluted by adding 990 μL PBS (1:100 dilution).
(§3) Preparation of free fatty acid (NEFA) assay: NEFA reagents were purchased from Wako Diagnostics, Wako Life Sciences, Inc. Reagent A was prepared by mixing Coloring Reagent A with Solvent A (225 μL per well). Reagent B was prepared by mixing Coloring Reagent B with Solvent B (75 μL per well). 5 nmoL oleic acid standard was prepared by diluting 20 μL of 1 mM oleic acid stock (WAKO NEFA standard solution) with 180 μL of 0.2% BSA.
(§4) LPL activity assay: 10 μL of Intralipid, human plasma sample, or mouse plasma sample was added in each well using repeater pipette. 10 μL (or 15 μL in the wells with no LPL control) of PBS and 10 μL of 1% BSA was added in each well using repeater pipette. 10 μL of peptides were added to corresponding wells in vertical triplicates (lowest concentration is on a left, highest is on the right). The plate was spun down at 1000 RPM for 10 seconds to mix and to remove the solutions from the wall of each well. The plate was put on ice and 5 μL of LPL was added using repeater pipette. The plate was spun down again at 1000 RPM for 10 seconds. The plate was covered and put back on ice for an incubation of 30 min. The plate was then moved to 37° C. and incubated for 1 hour.
(§5) Free fatty acids (NEFA) assay: 45 μL of 5 nmoL standard and 0 nmoL control (0.2% BSA) were added to corresponding wells. 225 μL of reagent A was added in each well using the reagent tray and 12-channel pipette. The plate was incubated for 10 min before 75 μL of reagent B was added to each well using the reagent tray and 12-channel pipette. The plate was not covered due to the high volume. The absorbance at 550 nm and 660 nm was measured.

bovine LPL [2] = target: T1, bovine LPL; assay: in vitro LPL assay using Intralipid as substrate; type: biochemical; conditions: concentrations of between about 1 nM to about 10 μM, FIG. 7
Procedure: as §1, §2, §3
LPL activity assay: 10 μL of Intralipid, human plasma sample, or mouse plasma sample was added in each well using repeater pipette. 10 μL (or 15 μL in the wells with no LPL control) of PBS and 10 μL of 1% BSA was added in each well using repeater pipette. […]
Free fatty acids (NEFA) assay: 45 μL of 5 nmoL standard and 0 nmoL control (0.2% BSA) were added to corresponding wells. […] The absorbance at 550 nm and 660 nm was measured.

bovine LPL [3] = target: T1, bovine LPL; assay: in vitro LPL assay using hypertriglyceridemia patient sera as substrate; type: biochemical; conditions: sera of patients with high levels of apoC-III protein, FIG. 27
Procedure: as §1, §3, §4, §5

apoC-II knockout mice = assay: plasma lipids of apoC-II knockout mice after peptide injection; type: in vivo
Procedure: (§6) C57Bl/6 mice (wild-type), apoC-II knockout (apoC-II KO) mice, and apoC-III transgenic mice were used for in vivo study. The C57Bl/6 mice (wild-type) were purchased from Taconic Biosciences Inc. The apoC-II KO mice were created as described in Sakurai et al., J Pharmacol Exp Ther 356:341-353, 2016. The apoC-III transgenic mice were generated by overexpressing human apoC-III in C57Bl/6 mice. See Qu et al., J. Lipid Res. 48:1476-1487, 2007.
Mice were fasted overnight (approximately 12 hours) before the study and 6 hours during the study, the next day. The apoC-II mimetic peptides were synthetically produced and free of biological contamination (not available as FDA approved compounds/treatment). […] W.) administered either subcutaneous injection (S.Q. or S.C.), intraperitoneal injection (I.P.) or intravenous injection (I.V.) (in a sterile, pharmaceutical grade PBS solution at a volume ≤200 μL) as described in Sakurai et al., J Pharmacol Exp Ther 356:341-353, 2016.

C57BL/6 mice (wild-type) = assay: post-prandial serum TG in C57BL/6 mice after oral gavage with vegetable oil; type: in vivo; conditions: intraperitoneally injected 30 min before gavage, FIG. 20
Procedure: as §6
Mice were fasted overnight (approximately 12 hours) before the study and 6 hours during the study, the next day. The apoC-II mimetic peptides were synthetically produced and free of biological contamination (not available as FDA approved compounds/treatment). Peptides were produced and used in sterile conditions and filtered by 0.2 nm filter before injections in a single dose 1-10 μmol/kg body weight (B. W.) administered either subcutaneous injection (S.Q. or S.C.), intraperitoneal injection (I.P.) or intravenous injection (I.V.) (in a sterile, pharmaceutical grade PBS solution at a volume ≤200 μL) as described in Sakurai et al., J Pharmacol Exp Ther 356:341-353, 2016.
(§7) In some experiments, each animal received 20% Intralipid (FDA approved, Fresenius Kabi, Uppsala, Sweden) in a single dose either by oral gavage (using special sterile single-use non-toxic animal feeding needles) in a dose 10-20 μL/gram body weight (B.W.) (Tuzcu et al. Drug Chem Toxicol 37: 261-267, 2014; Kusminski et al. Nature Medicine 18: 1539-1549, 2012), or by intraperitoneal injection in a single bolus of 0.1-1.0 mL (Mahadero et al. American J Surgery 164: 45-50, 1992), or by intragastric administration of a dietetic commercially-available liquid oil (food grade vegetable, corn, soy or olive oil) in a single dose 10-20 μL/gram body weight. These oils were a source of TG—when absorbed TG tends to be broken down within 3 h (peak in 30 min) (Kritchevsky Nutritional Biochemistry 6:172-178, 1995). Blood samples (20-30 μL) were obtained from the retro-orbital plexus at time points: −1 h, 0 h, 1 h, 3 h, 6 h and 24 h for measurements of lipids. Mice were returned to metabolic cages after the 6 h time point where the food was put back. Once the study was completed (after 24 hours from the fat administration), mice were euthanized and organs collected.

wild-type mice = assay: serum TG of wild-type mice after Intralipid injection with or without LPL inhibitor Triton WR1339; type: in vivo; conditions: co-injection with Intralipid, 6 h time point
Procedure: as §7
The ability of apolipoprotein mimetic peptides to normalize hypertriglyceridemia in mice treated with an LPL inhibitor, Tyloxapol, in presence of high TG provided by 20% Intralipid, was assessed.
Mice were fasted overnight (approximately 12 hours) before the study and 6 hours during the study, the next day. The apo mimetic peptides were synthetically produced and free of biological contamination (not available as FDA approved compounds/treatment). Peptides were produced and used in sterile conditions and filtered by 0.2 nm filter before injections in a single dose 1-5 μmol/kg B.W. either S.C. or I.P. or I.V. (in a sterile, pharmaceutical grade PBS solution at a volume ≤200 μL). Next, 10% Tyloxapol (Triton WR-1339, T-0307, Sigma-Aldrich) was injected I.V. in a single dose of 5 μL/gram B.W., as described earlier (Zhang Y. L. et al., J Biol Chem. 279: 19362-19374, 2004; Abe C. et al., J. Nutr. 137: 345-350, 2007). […] Finally, each animal received 20% Intralipid (FDA approved, Fresenius Kabi, Uppsala, Sweden) in a single dose either by oral gavage (using special sterile single-use non-toxic animal feeding needles)—in a dose 10-20 μL/gram B.W. (Tuzcu K. et al., Drug Chem Toxicol., 37: 261-267, 2014, Kusminski C. et al., Nature Medicine. 18: 1539-1549, 2012), or by intraperitoneal injection—in a single bolus of 0.1-1.0 mL (Mahadero G. et al., American J Surgery. 164: 45-50, 1992). Blood samples (20-30 μL) were obtained from the retro-orbital plexus at time points: −1 h, 0 h, 1 h, 3 h, 6 h and 24 h for measurements of lipids. Mice were returned to metabolic cages after the 6 h time point where the food was put back. Once the study was completed (after 24 hours from the Intralipid administration), mice were euthanized and organs collected.

[4] = target: T2, LPL inhibited by apoC-III (Bos taurus, UniProt P11151); assay: LPL activation assay with Intralipid as substrate and recombinant apoC-III as an inhibitor; type: biochemical; conditions: Intralipid substrate, FIG. 31
T2 sequence (P11151 29-478): T1 sequence (P11151 29-478)
Procedure: as §4, §5
(§8) LPL assay was performed using Intralipid, high TG human plasma (1:50 dilution), or apoC-III transgenic mouse plasma (1:50 dilution). When Intralipid was used as a substrate, 25 or 50 μM recombinant ApoC-III was added as an inhibitor. When the high TG human plasma was used as a substrate, 25 or 50 μM recombinant ApoC-III was added as an inhibitor with or without pre-incubation at 37° C. for 1 hour. An apoC-II mimetic peptide was added at various concentrations.

[5] = target: T2, LPL inhibited by apoC-III; assay: LPL activation assay with high TG human plasma as substrate and recombinant apoC-III as an inhibitor; type: biochemical; conditions: 50 μM apoC-III added; from about 3.2 μM without; plasma 1:50 dilution
Procedure: as §4, §5, §8

[6] = target: T2, LPL inhibited by apoC-III; assay: LPL assay using human apoC-II deficient plasma as substrate with recombinant apoC-III; type: biochemical; conditions: 25 μM apoC-III added; from about 1.5 μM without
Procedure: as §4, §5, §8

Row | Substance | promoting TG hydrolysis in the presence of LPL (bovine LPL [1]) | efficiency compared with native apoC-II protein (bovine LPL [1]) | TG hydrolysis (bovine LPL [1]) | efficiency compared with native apoC-II protein (bovine LPL [2]) | serum TG increase after vegetable oil gavage (C57BL/6 mice (wild-type)) | TG clearance ability compared with Delta4 (bovine LPL [1]) | also measured
1 | DYLKAVFEKLRDLYSKFTAAnLSTYTGIFTDQVLSVLKGEE (DYLKAVFEKLRDLYSKFTAA[Nle]STYTGIFTDQVLSVLKGEE) [Delta4] | capable of promoting TG hydrolysis in the presence of LPL | worked more efficiently than the native apoC-II protein | promoted TG hydrolysis in a dose-dependent manner | worked more efficiently than the native apoC-II protein | the TG increase was significantly reduced |  | LPL activity (bovine LPL [3]): increased the LPL activity; plasma TG (apoC-II knockout mice; intraperitoneal injection): marked reduction of plasma TG; total cholesterol level (apoC-II knockout mice; intraperitoneal injection): decrease in total cholesterol level; time of maximum decrease of plasma TG (apoC-II knockout mice; intraperitoneal injection, FIG. 18): about 3 hours; plasma TG (apoC-II knockout mice; subcutaneous injection): rapid and marked reduction of plasma TG; total cholesterol level (apoC-II knockout mice; subcutaneous injection): decrease in total cholesterol level
2 | DYLKAVFEKLRDLYSKFTPAMSTYTGIFTDQVLSVLKGEE [Delta4b] |  |  | promoted TG hydrolysis in a dose-dependent manner |  | the TG increase was significantly reduced | enhanced the TG clearance ability of the exemplary apoC-II mimetic peptide Delta4 | 
3 | DYLKAVFEKLRDLYSKKC18TPAMSTYTGIFTDQVLSVLKGEE (DYLKAVFEKLRDLYSKK(Stearoyl)TPAMSTYTGIFTDQVLSVLKGEE) [Delta4b-3] |  |  | promoted TG hydrolysis in a dose-dependent manner |  | the TG increase was significantly reduced | enhanced the TG clearance ability of the exemplary apoC-II mimetic peptide Delta4 | 
4 | DYLKEVFEKLRDLYSKFTAAnLSTYTGIFTDQVLSVLKGEE (DYLKEVFEKLRDLYSKFTAA[Nle]STYTGIFTDQVLSVLKGEE) [Delta5] | capable of promoting TG hydrolysis in the presence of LPL | worked more efficiently than the native apoC-II protein |  | worked more efficiently than the native apoC-II protein |  |  | 
5 | Tyloxapol [Triton, reference compound] |  |  |  |  |  |  | increase of serum TG level (wild-type mice): more than 1000 fold
6 | apoC-III recombinant protein: recombinant ApoC-III added as an inhibitor in the LPL assay |  |  |  |  |  |  | effect on production of free fatty acid (NEFA) [4]: inhibited the production of free fatty acid (NEFA); free fatty acid (NEFA) production [5]: about 1.7 μM; free fatty acid (NEFA) production [6]: about 0.8 μM
